According to US20260151494A1 (ARO BIOTHERAPEUTICS, published 2026):
Positions count from the first letter of the chain named. Where two headings read alike, the source gives them in different places.

B1: CD71-binding FN3 domain of SEQ ID NO: 472 (designed binder)
chain: MLPAPKNLVVSRVTEDSARLSWTAPDAAFDSFFIGYLEPQPPGEAIELYVPGSERSYDLTGLKPGTEYNVTIQGVKGGFPSLPLVATFTT
notes: Tencon-based FN3 domain
B2: CD71-binding FN3 domain of SEQ ID NO: 465 (designed binder)
chain: B1 chain with E47D, L82E, V85W, T87D
notes: Tencon-based FN3 domain
B3: CD71-binding FN3 domain of SEQ ID NO: 447 (designed binder)
chain: B1 chain with E47Y, L82Y, V85T, T87Q
notes: Tencon-based FN3 domain
B4: CD71-binding FN3 domain of SEQ ID NO: 473 (designed binder)
chain: B1 chain with E47D, Y49W, V85S, T87S
notes: Tencon-based FN3 domain
B5: CD71-binding FN3 domain of SEQ ID NO: 373 (designed binder)
chain: B1 chain with E47S, Y49F, L82D, T87S
notes: Tencon-based FN3 domain
B6: CD71-binding FN3 domain of SEQ ID NO: 476 (designed binder)
chain: B1 chain with E47H, Y49Q, L82I, V85I, T87V
notes: Tencon-based FN3 domain
B7: CD71-binding FN3 domain of SEQ ID NO: 400 (designed binder)
chain: B1 chain with E47H, Y49F, L82G, V85H
notes: Tencon-based FN3 domain
B8: CD71-binding FN3 domain of SEQ ID NO: 234 (designed binder)
chain: MSLPAPKNLVVSRVTEDSARLSWTAPDAAFDSFFIGYLEPQPPGEAIALYVPGSERSYDLTGLKPGTEYNVTIQGVKGGFPSEPLVAHFTT
B9: CD71-binding FN3 domain of SEQ ID NO: 290 (designed binder)
chain: B8 chain with A48H, H88T
B10: CD71-binding FN3 domain of SEQ ID NO: 264 (designed binder)
chain: B8 chain with A87V
B11: CD71-binding FN3 domain of SEQ ID NO: 972 (designed binder)
chain: B8 chain with V76A, A87V
B12: CD71-binding FN3 domain of SEQ ID NO: 333 (designed binder)
chain: B8 chain with K7E, E83L, H88T
B13: CD71-binding FN3 domain of SEQ ID NO: 973 (designed binder)
chain: B8 chain with A48H, V71G, G78V, V86I, H88N
B14: CD71-binding FN3 domain of SEQ ID NO: 974 (designed binder)
chain: B8 chain with E83L, H88T
B15: CD71-binding FN3 domain of SEQ ID NO: 331 (designed binder)
chain: B8 chain with A48H, G78V, V86I, H88N
B16: CD71-binding FN3 domain of SEQ ID NO: 335 (designed binder)
chain: B8 chain with A48D, E83L, H88T
B17: CD71-binding FN3 domain of SEQ ID NO: 270 (designed binder)
chain: B8 chain with A48H, V86I, H88N, F89S
B18: CD71-binding FN3 domain of SEQ ID NO: 343 (designed binder)
chain: B8 chain with Y50W, H88T
B19: CD71-binding FN3 domain of SEQ ID NO: 281 (designed binder)
chain: B8 chain with V86I, H88N
B20: CD71-binding FN3 domain of SEQ ID NO: 222 (designed binder)
chain: B8 chain with A48T, E83G, V86I, H88S
B21: CD71-binding FN3 domain of SEQ ID NO: 341 (designed binder)
chain: B8 chain with A48E, E83L, H88I
B22: CD71-binding FN3 domain of SEQ ID NO: 231 (designed binder)
chain: B8 chain with A48H, Y50F, V86I, H88N, F89S
B23: CD71-binding FN3 domain of SEQ ID NO: 221 (designed binder)
chain: B8 chain with Q41R, A48H, V71I, E83I, V86I, H88S
B24: CD71-binding FN3 domain of SEQ ID NO: 540 (designed binder)
chain: MLPAPKNLVVSRVTEDSARLSWTAPDAAFDSFYIAYAEPRPDGEAIILVVPGSERSYDLTGLKPGTEYSVLIHGVKGGLLSSPLDAGFTT
notes: Tencon-based FN3 domain
B25: CD71-binding FN3 domain of SEQ ID NO: 229 (designed binder)
chain: MSLPAPKNLVVSRVTEDSARLSWTAPDAAFDSFSIMYAEQKVNGEAIVLTVPGSERSYDLTGLKPGTEYLVLIWGVKGGGRSLPLSAIFTT
B26: CD71-binding FN3 domain of SEQ ID NO: 227 (designed binder)
chain: MSLPAPKNLVVSRVTEDSARLSWTAPDAAFDSFEIAYAELSTGEAIVLTVPGSERSYDLTGLKPGTEYYVHIGGVKGGSWSIPLSAIFTT
B27: CD71-binding FN3 domain of SEQ ID NO: 224 (designed binder)
chain: MSLPAPKNLVVSRVTEDSARLSWTAPDAAFDSFEIGYWENAYKGEAIVLTVPGSERSYDLTGLKPGTEYVVFIGGVKGGGWSGPLSAIFTT
B28: CD71-binding FN3 domain of SEQ ID NO: 226 (designed binder)
chain: B27 chain with V11I, W38F, A41L, K43L, V70W, F72A, G80L, G83L
B29: CD71-binding FN3 domain of SEQ ID NO: 228 (designed binder)
chain: B27 chain with G80V, G83K, A87V
B30: CD71-binding FN3 domain of SEQ ID NO: 230 (designed binder)
chain: B27 chain with V10I, F33L, W38F, A41L, K43L, V70W, F72Q, G80N, G83A
B31: CD71-binding FN3 domain of SEQ ID NO: 233 (designed binder)
chain: B8 chain with A48H, Y50S, N70W, T72Q, Q74G, F80N, P81W, E83A, V86S, H88I
B32: CD71-binding FN3 domain of SEQ ID NO: 232 (designed binder)
chain: B27 chain with G36S, N40H, A41T, Y42F, K43N, V48I, T50F, G80V, G83V

How the values were obtained:
[1] = molecular target: T1, human CD71 on cells (SKBR3; SW620-rLuc-KRAS) (human, UniProt P02786 1-760); test: cell-based or functional assay
[2] = molecular target: T2, human CD71 extracellular domain (CD71-ECD) (human, UniProt P02786 89-760); test: capture ELISA, 20 nM antigen on Neutravidin plate, FN3 titrated 250 to 0.3 nM
T2 construct: It was captured on a Neutravidin plate; also called hCD71; transferrin receptor 1 ECD
Experimental: (§1) Select CD71-binding FN3 domains identified in Example 4 above were chosen to determine their binding to both human and cynomolgus monkey CD71 extracellular domain (CD71-ECD). Capture ELISA using CD71 binding to FN3 domains was performed, with the FN3 domains being titrated from 250 nM to 0.3 nM. 20 nM of antigen was incubated on a Neutravidin® plate for 1 hour at room temperature. The FN3 domains were incubated for 16 hours at room temperature.

[3] = molecular target: T3, cynomolgus monkey CD71 extracellular domain (CD71-ECD) (cynomolgus monkey, UniProt H9EXL1 89-760 (rhesus entry)); test: as above
T3 construct: extracellular domain; It was captured on a Neutravidin plate; also called cynomolgus CD71-ECD
Experimental: as §1

[4] = molecular target: T1, human CD71 on cells (SKBR3; …); test: cell-based or functional assay; remark: listed apart in the source
[5] = molecular target: T4, human CD71 extracellular domain (human, UniProt P02786 89-760); test: primary ELISA, luminescence
T4 construct: also called hCD71; human CD71-ECD

[6] = molecular target: T5, apical domain of cynomolgus CD71 (cynomolgus, UniProt A0A2K5X958 189-383); test: primary ELISA, luminescence
T5 construct: domain: apical domain; also called Cyno apical domain

[7] = molecular target: T4, human CD71 extracellular domain; test: primary ELISA, ratio of signal to HSA control
[8] = molecular target: T5, apical domain of cynomolgus CD71; test: primary ELISA, ratio of signal to HSA control

T5 sequence (A0A2K5X958 entry or part of it): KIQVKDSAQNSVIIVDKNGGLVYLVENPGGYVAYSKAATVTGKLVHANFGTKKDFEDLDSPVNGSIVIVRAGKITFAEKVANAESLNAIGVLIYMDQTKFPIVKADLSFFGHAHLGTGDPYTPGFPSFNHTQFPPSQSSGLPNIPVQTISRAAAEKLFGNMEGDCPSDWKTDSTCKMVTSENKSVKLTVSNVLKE
T1 sequence (P02786 whole entry, the tested form may be a part): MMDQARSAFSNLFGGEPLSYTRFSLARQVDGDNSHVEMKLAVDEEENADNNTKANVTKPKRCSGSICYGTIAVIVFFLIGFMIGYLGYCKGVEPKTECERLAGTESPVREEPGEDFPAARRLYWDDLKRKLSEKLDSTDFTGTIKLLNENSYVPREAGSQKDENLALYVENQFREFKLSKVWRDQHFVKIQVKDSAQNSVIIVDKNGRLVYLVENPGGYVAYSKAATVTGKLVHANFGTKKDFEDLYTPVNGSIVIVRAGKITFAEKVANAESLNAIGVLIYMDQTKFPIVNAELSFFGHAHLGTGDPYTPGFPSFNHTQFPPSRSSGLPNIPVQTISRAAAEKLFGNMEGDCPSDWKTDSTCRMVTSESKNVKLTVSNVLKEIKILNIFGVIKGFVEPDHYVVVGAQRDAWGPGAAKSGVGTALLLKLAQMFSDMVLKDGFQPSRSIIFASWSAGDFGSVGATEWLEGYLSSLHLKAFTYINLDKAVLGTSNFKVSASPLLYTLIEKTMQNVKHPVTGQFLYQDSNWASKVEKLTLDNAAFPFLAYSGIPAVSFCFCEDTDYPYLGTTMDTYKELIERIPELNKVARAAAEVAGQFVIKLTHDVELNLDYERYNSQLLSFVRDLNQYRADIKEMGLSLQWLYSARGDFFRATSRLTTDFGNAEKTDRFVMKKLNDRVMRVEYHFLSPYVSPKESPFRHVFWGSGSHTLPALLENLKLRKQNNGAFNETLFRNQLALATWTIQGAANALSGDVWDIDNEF
T3 sequence (chain, as listed by the source): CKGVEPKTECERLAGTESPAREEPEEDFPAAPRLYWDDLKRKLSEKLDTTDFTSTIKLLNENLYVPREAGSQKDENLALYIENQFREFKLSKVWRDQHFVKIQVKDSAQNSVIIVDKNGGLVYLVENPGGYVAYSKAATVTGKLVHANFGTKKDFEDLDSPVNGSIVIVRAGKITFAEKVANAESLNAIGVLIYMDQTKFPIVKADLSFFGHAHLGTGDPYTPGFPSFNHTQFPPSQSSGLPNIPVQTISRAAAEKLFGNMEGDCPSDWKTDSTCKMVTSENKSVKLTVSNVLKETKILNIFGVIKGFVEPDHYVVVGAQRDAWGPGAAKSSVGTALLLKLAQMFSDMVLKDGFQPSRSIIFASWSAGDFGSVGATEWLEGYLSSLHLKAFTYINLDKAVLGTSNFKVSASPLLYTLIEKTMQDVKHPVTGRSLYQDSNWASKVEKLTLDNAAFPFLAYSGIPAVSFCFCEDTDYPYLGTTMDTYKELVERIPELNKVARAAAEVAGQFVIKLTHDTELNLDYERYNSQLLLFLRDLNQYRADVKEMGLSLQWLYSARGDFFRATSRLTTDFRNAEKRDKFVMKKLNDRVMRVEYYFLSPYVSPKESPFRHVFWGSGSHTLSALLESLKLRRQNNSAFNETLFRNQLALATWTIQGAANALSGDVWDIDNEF
T4 sequence (P02786 89-760): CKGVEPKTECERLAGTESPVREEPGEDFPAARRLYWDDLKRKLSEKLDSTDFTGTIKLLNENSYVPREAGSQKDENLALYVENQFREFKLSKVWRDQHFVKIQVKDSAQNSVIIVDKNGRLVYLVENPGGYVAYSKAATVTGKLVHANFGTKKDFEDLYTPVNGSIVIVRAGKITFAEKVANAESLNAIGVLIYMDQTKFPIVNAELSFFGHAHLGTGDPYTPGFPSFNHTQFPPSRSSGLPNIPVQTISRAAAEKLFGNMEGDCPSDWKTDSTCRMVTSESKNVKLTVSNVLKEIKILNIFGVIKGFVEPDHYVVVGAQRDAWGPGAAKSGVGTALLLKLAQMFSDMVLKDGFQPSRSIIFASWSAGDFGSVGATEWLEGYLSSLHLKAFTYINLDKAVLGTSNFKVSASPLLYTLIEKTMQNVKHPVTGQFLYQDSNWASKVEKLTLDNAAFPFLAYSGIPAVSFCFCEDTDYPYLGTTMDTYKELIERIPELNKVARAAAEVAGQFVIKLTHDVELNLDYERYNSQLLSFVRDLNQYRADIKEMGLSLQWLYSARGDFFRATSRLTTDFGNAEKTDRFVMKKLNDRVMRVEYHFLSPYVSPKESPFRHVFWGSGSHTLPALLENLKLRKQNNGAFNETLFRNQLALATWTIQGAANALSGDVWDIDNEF
T2 sequence (P02786 89-760): as above

| Binder | CTG EC50 (CellTiter-Glo luminescent assay, SKBR3 cells, 72 h) [4] [nM] | RLU [5] [RLU] | RLU [6] [RLU] | hCD71:HSA [7] | Cyno apical domain:HSA [8] | other results |
| --- | --- | --- | --- | --- | --- | --- |
| B1 | – | – | – | – | – | CTG EC50 (CellTiter-Glo luminescent assay, SKBR3 cells, 72 h) [1]: 0.3 nM; EC50 [2]: 0.4 nM; EC50 [3]: 0.7 nM |
| B2 | – | – | – | – | – | CTG EC50 (CellTiter-Glo luminescent assay, SKBR3 cells, 72 h) [1]: 1.2 nM; EC50 [2]: 2.5 nM; EC50 [3]: 24.9 nM |
| B3 | – | – | – | – | – | CTG EC50 (CellTiter-Glo luminescent assay, SKBR3 cells, 72 h) [1]: 71.5 nM; EC50 [2]: 3.2 nM; EC50 [3]: 5 nM |
| B4 | – | – | – | – | – | CTG EC50 (CellTiter-Glo luminescent assay, SKBR3 cells, 72 h) [1]: 12.6 nM; EC50 [2]: 4.3 nM; EC50 [3]: 34.9 nM |
| B5 | – | – | – | – | – | CTG EC50 (CellTiter-Glo luminescent assay, SKBR3 cells, 72 h) [1]: 0.4 nM; EC50 [2]: 0.91 nM; EC50 [3]: 1.6 nM |
| B6 | – | – | – | – | – | CTG EC50 (CellTiter-Glo luminescent assay, SKBR3 cells, 72 h) [1]: 2.7 nM; EC50 [2]: 2.1 nM; EC50 [3]: 17.7 nM |
| B7 | – | – | – | – | – | CTG EC50 (CellTiter-Glo luminescent assay, SKBR3 cells, 72 h) [1]: 2.9 nM; EC50 [2]: 2.8 nM; EC50 [3]: 4.3 nM |
| B8 | 0.07 | – | – | – | – | – |
| B9 | 0.01 | – | – | – | – | – |
| B10 | 0.16 | – | – | – | – | – |
| B11 | 0.04 | – | – | – | – | – |
| B12 | 0.57 | – | – | – | – | – |
| B13 | 0.07 | – | – | – | – | – |
| B14 | 0.15 | – | – | – | – | – |
| B15 | 0.05 | – | – | – | – | – |
| B16 | 0.04 | – | – | – | – | – |

| Binder | CTG EC50 (CellTiter-Glo luminescent assay, SKBR3 cells, 72 h) [4] [nM] | RLU [5] [RLU] | RLU [6] [RLU] | hCD71:HSA [7] | Cyno apical domain:HSA [8] | other results |
| --- | --- | --- | --- | --- | --- | --- |
| B17 | 0.57 | – | – | – | – | – |
| B18 | 0.21 | – | – | – | – | – |
| B19 | 0.06 | – | – | – | – | – |
| B20 | – | 5.78e+06 | 6.01e+06 | 215 | 223 | – |
| B21 | 0.11 | – | – | – | – | – |
| B22 | – | 4.93e+06 | 5.52e+06 | 56 | 63 | – |
| B23 | – | 5.75e+06 | 6.08e+06 | 176 | 186 | – |
| B24 | – | – | – | – | – | CTG EC50 (CellTiter-Glo luminescent assay, SKBR3 cells, 72 h) [1]: 14.4 nM; EC50 [2]: 10 nM |
| B25 | – | 3.42e+06 | 4.52e+06 | 90 | 119 | – |
| B26 | – | 2.62e+06 | 4.23e+06 | 30 | 49 | – |
| B27 | – | 3.1e+06 | 4.79e+06 | 74 | 115 | – |
| B28 | – | 3.1e+06 | 4.33e+06 | 20 | 28 | – |
| B29 | – | 2.66e+06 | 4.86e+06 | 133 | 242 | – |
| B30 | – | 2.54e+06 | 4.73e+06 | 151 | 282 | – |
| B31 | – | 2.69e+06 | 4.78e+06 | 202 | 359 | – |
| B32 | – | 3.58e+06 | 5.41e+06 | 195 | 295 | – |
